Assay results published in patent publication US20240218057A1 (ROCKEFELLER UNIVERSITY, published 2024).
Residue numbers refer to the chain shown, from its start.

B1: C840 (antibody, V domains shown)
VH: QVQLVESGGGVVQPGRSLRLSCEASGFTFTAYAMHWLRQAPGKGLEWVAVILNDGSNKLYADSVKGRFTVSRDNSKNMLYLQVNSLRVDDTAVYYCARDGSVDTLMVTWFDYWGQGTLVTVSS
VL: DIQMTQSPSSLSASVGDRVTITCRASQSVNNYLNWYQQKPGQAPKLLIYAASSLQSGVPLRFSGSGSGTDFALTITSLHTEDFATYYCQQSYNTPPWTFGPGTKVEIK
notes: IgG; V domains only
B2: C841 (antibody, V domains shown)
VH: EVQLVESGGGLVQPGGSLRLSCAASGFTFSIFSMNWVRQAPGKGLEWISYISSSSGSRHYADSVKGRFTISRDNAKNSLYLQMNNLRDEDTAMYYCAREAHDGALTGYGDYLNWFDPWGQGVLVTVSS
VL: SYELTQPPSVSVAPGKTARIPCGGDSVGSKSVHWYQQKSGQAPVLVIHSDSDRPSGIPERFSGSNSGNTATLTITGVAAGDEADYYCHVWDTIGDRFYWVFGGGTKLTVL
notes: IgG; V domains only
B3: C855 (antibody, V domains shown)
VH: QVQLVESGGGVVQPGRSLRLSCAASGFAFSTYGMHWVRQTPGKGLAWVAAISYDGRNTYYGDSVKGRFTITRDNSKNTLYLQLNSLRDEDTALYYCARDATMITLVRGIMGPPFDHWGQGSLVTVSS
VL: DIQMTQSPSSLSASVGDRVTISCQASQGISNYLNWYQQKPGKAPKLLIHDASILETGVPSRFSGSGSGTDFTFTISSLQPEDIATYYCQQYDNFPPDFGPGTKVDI
notes: IgG; V domains only
B4: C842 (antibody, V domains shown)
VH: QVQLVESGGGVVQPGRSLRLSCAASGFTFSTYAIHWVRQAPGKGLEWVAAISYDGSNKYYSDSVKGRLFISRDNSNNTVYLQMNNLRAEDTAIYYCARDGTIVTLVRGVMGPPFDYWGQGTLVTVSS
VL: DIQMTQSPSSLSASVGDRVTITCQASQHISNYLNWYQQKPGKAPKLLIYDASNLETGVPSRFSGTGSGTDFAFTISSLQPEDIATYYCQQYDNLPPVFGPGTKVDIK
notes: IgG; V domains only
B5: C856 (antibody, V domains shown)
VH: QVQLVESGGGVVQPGRSLRLSCAASGFTFSSYGMHWVRQAPGKGLEWVAVISYDGSNKYYADSVKGRFTISRDNSKNTLYLQMSSLRAEDTAVYYCAKQIGEYCSGGSCYQGSLDYWGQGTLVTVSS
VL: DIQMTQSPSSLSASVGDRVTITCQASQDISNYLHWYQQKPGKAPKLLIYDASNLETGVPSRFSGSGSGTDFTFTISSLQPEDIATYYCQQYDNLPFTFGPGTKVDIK
notes: IgG; V domains only
B6: C843 (antibody, V domains shown)
VH: B5 VH with S31R, G33A, D62T, V64L, F68C, S84N, Y95F, S108N
VL: DIQMTQSPSSLSASVGDRVTITCQASQDISNYLNWYQQKPGKAPKLLIYDASDLETGVPSTFSGSGSGTDFTLTISSLQPEDFATYYCQQYDIVPFTFGPGTKVDIK
notes: IgG; V domains only
B7: C857 (antibody, V domains shown)
VH: QVQLQESGPGLVKPSQTLSLTCTVSGGSISSGGYYWSWIRQHPGKGLEWIGYIYYSGSTYYNPSLESRVTISVDTSKNQFSLKLSSVTAADTAVYYCASGELSAFGELFPHDYWGQGTLVTVSS
VL: EIVLTQSPATLSLSPGERATLSCRASQSVSTYLAWYQQKPGQAPRLLIYDASNRATGIPARFSGSGSGTDFTLTISSLEPEDFAVYYCQQRSNWLFTFGPGTKVDIK
notes: IgG; V domains only
B8: C845 (antibody, V domains shown)
VH: QVQLQESGPGLVKPSQTLSLTCTVSGASISSGEYYWSWVRQPPGKGLEWVGYIYYSGSTYYNPSLKSRVTISVDTSKNHFSLKLKSLTAADTAVYFCATGGLSAFGELFPHDKWGQGTLVTVSS
VL: B7 VL with S30G, T31S, Y32D, A51T, E79D, E81A, S92T, T97S
notes: IgG; V domains only
B9: C846 (antibody, V domains shown)
VH: QVQLVESGGGVFQPGRSLRLSCAASGFNFRTYAMHWVRQAPGKGLEWVAVILDDGSGKFYADSVKGRFTVSRDNSKHTLYLQMTSLSAEDTAIYFCARDQGTATTYFDHWGQGTLVTVSS
VL: DIQMTQSPSSLSASVGDRVTITCRASQSIRTFLSWYQQKAGKAPKLLIYTASSLQNGVPSRFSGSGSGTDFTLTISSLQPEDFATYYCQQSYETPPWTFGQGTKVEIK
notes: IgG; V domains only
B10: C848 (antibody, V domains shown)
VH: QVQLQESGPGLVKPSQTLSLTCTVSGGSISSGDYYWSWIRQPPGKGLEWIGYIYYTGITYYRPSLKSRVTISVDTSKNQFSLKLSSVTAADTAVFYCARVVRLWPRYFDSWGQGTLVTVSS
VL: QSALTQPPSASGSPGQSVTISCTGTSSDVGTYDYVSWYQQHPGKAPKVIIYEVTKRPSGVPDRFSGSKSGNTASLTVSGLQAEDEAHYYCSTYAGSDNLEFGGGTKLTVL
notes: IgG; V domains only

Biological target: T1, SARS-COV-2 RBD (SARS-COV-2, UniProt P0DTC2 319-539)
T1 construct: also called WT RBD
Assay: ELISA, RBD coated

| Binder | EC50 [ng/mL] |
| --- | --- |
| B1 | 1.36 |
| B2 | 3.15 |
| B3 | 2.73 |
| B4 | 3.01 |
| B5 | 2.65 |
| B6 | 2.4 |
| B7 | 2.01 |
| B8 | 1.5 |
| B9 | 3.48 |
| B10 | 2.23 |
